Test results published in PMC9850920.

Molecular target: T1, METTL16-His6 (full length) (Homo sapiens, UniProt Q86W50)
T1 sequence: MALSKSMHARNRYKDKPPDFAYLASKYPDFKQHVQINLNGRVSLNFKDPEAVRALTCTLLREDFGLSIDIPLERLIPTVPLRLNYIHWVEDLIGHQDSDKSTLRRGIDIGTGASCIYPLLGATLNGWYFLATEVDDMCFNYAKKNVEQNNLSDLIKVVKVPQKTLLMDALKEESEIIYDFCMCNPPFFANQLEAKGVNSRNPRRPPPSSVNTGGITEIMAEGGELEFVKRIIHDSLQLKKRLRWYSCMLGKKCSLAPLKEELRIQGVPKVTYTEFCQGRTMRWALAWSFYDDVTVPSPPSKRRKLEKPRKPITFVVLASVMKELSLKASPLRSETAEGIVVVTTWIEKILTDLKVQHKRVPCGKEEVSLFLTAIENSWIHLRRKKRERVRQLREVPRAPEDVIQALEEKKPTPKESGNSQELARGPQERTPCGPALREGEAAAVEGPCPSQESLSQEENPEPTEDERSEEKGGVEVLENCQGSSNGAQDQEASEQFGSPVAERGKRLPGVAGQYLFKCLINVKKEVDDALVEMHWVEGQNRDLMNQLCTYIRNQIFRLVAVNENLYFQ
Test: MST

B1: MALAT1 triple helix (structured_RNA)
RNA: GGAAGGUUUUUCUUUUCCUGAGAAAACAACACGUAUUGUUUUCUCAGGUUUUGCUUUUUGGCCUUUUUCUAGCUUAAAAAAAAAAAAAGCAAAA
Q: B1 was tested. Which Kd did it give?
A: 31 ± 3 nM
